Primed or numbered codes have the meaning given here. Where no end group is shown, it is not given here. Side-chain parts run from the residue outwards. [ ]: non-standard residue; d: D form. The star is where a group is joined. PEG(11) = undeca(ethylene glycol) spacer (11 ethylene glycol units) between biotin and maleimide; Biotin = O=C1N[C@H]2[C@H](CS[C@H]2CCCCC(=O)*)N1; PEG11′ = not defined here; Abu = CC[C@H](N)C(=O)O
T1: human iRhom2 (inactive rhomboid protein 2, isoform 1, NP_078875.4) (human, UniProt Q6PJF5 1-856)
T1 sequence: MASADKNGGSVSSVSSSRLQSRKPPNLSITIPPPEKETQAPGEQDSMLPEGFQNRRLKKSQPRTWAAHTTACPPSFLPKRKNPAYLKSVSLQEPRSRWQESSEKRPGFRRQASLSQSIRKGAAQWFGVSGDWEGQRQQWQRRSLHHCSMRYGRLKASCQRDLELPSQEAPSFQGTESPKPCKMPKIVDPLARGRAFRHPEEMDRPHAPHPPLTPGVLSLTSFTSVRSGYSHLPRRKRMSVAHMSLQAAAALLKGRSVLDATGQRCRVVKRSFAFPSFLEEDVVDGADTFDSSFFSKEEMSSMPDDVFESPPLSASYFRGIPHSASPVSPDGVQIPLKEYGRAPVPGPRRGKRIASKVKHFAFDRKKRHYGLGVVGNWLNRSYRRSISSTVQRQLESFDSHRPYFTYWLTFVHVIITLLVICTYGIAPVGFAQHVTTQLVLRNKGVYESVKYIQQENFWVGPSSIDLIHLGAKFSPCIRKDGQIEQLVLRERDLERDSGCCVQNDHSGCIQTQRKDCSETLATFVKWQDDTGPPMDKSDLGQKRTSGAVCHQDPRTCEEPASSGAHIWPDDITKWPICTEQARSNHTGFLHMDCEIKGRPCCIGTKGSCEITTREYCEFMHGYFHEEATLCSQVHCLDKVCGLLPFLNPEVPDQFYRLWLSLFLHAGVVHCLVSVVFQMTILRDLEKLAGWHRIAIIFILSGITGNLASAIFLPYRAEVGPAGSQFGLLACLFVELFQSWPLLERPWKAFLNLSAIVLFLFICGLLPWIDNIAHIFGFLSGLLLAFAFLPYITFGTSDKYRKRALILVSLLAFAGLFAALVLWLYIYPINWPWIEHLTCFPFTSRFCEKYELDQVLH

T2: peptide 11 (human iRhom2 C-terminus, AA819-856), biotinylated (human, oxidized to the cyclic disulfide; biotin-PEG(11)-maleimide on the added C-terminal cysteine)
T2 construct: also called immunization peptide 11
T2 peptide: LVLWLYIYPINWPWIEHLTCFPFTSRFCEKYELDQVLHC

T3: peptide 1b (human iRhom1 juxtamembrane domain of TMD1, AA433-449), biotinylated (human)
T3 peptide: SQHETVDSVLRNRGVYEC([maleimide-PEG(11)-Biotin])

T4: peptide 2b (human iRhom1 juxtamembrane domain of TMD1, AA428-449), biotinylated (human, biotin-PEG(11)-maleimide on the added C-terminal cysteine)
T4 peptide: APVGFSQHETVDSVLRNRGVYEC

T5: peptide 3b (human iRhom1 juxtamembrane domain of TMD1, AA433-461), biotinylated (human, biotin-PEG(11)-maleimide on the added C-terminal cysteine)
T5 peptide: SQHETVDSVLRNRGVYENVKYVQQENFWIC

T6: peptide 4b (human iRhom1 juxtamembrane domain of TMD1, AA428-461), biotinylated (human, biotin-PEG(11)-maleimide on the added C-terminal cysteine)
T6 peptide: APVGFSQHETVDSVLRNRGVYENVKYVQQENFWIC

T7: peptide 5 (human iRhom2 loop 1, AA474-498), biotinylated (human, X (position 4) = aminobutyrate in place of the internal cysteine; biotin-PEG(11)-maleimide on the added N-terminal cysteine)
T7 construct: also called immunization peptide 5
T7 peptide: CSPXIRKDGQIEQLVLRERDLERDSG

T8: peptide 6 (human iRhom2 loop 1, AA508-548), biotinylated (human, not fully specified; X (position 9) = aminobutyrate in place of the internal cysteine; biotin-PEG(11)-maleimide on the natural terminal cysteine)
T8 construct: also called immunization peptide 6
T8 peptide: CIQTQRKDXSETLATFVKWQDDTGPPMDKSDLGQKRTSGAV

T9: peptide 7 (human iRhom2 loop 1, AA578-600), biotinylated (human, X (position 16) = aminobutyrate in place of the internal cysteine; biotin-PEG(11)-maleimide on the natural terminal cysteine)
T9 construct: also called immunization peptide 7
T9 peptide: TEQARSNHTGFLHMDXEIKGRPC

T10: peptide 8 (human iRhom2 C-terminus, AA824-839), biotinylated (human)
T10 construct: also called immunization peptide 8
T10 peptide: YIYPINWPWIEHLT[Abu]FC([maleimide-PEG11′-Biotin])

T11: peptide 9 (human iRhom2 C-terminus, AA819-839), biotinylated (human, X (position 20) = aminobutyrate in place of the internal cysteine; biotin-PEG(11)-maleimide on the added C-terminal cysteine)
T11 construct: also called immunization peptide 9
T11 peptide: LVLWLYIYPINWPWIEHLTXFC

T12: peptide 10 (human iRhom2 C-terminus, AA824-856), biotinylated (human, oxidized to the cyclic disulfide; biotin-PEG(11)-maleimide on the added C-terminal cysteine)
T12 construct: also called immunization peptide 10
T12 peptide: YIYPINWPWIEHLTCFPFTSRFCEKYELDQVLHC

B1: antibody 4H8-E3 of the invention (antibody, V domains shown)
VH: EVQLQQSGPELVKPGASVKISCKASGYTFTDYYMNWVKQSHGKSLEWIGDINPNNGGTSYNQKFKGKATLTVDKSSNTAYMEFRSLTSEDSAVYYCARRGYYGVDYWGQGTTLTVSS
VL: NIVMTQSPKSMSMSVGERVTLNCKASENVGTYVSWYQQKPEQSPKLLIFGASNRYTGVPDRFIGSGFATDFTLTISSVQAEDLADYHCGQSYSYPYTFGGGTKLEIK
notes: Mouse monoclonal antibody purified from the supernatant of hybridoma sub-clone 4H8-E3; also called anti JMD1 antibody 4H8-E3; purified antibody 4H8-E3

What was measured:
[1] = system: LPS-induced release of endogenous TNFα from human THP-1 macrophage cells; experiment: ELISA-based TNFα release assay with purified antibody (Example 11); assay type: cell-based; settings: Homo sapiens; positive control at 10 μM final; THP-1 cells; LPS 50 ng/ml, 2 hours
Protocol: In the following study, ELISA-based TNFα release assays were performed to verify the inhibitory effects of the purified antibody 4H8-E3 of the invention on LPS-induced release of endogenous TNFα from human THP-1 macrophage cells.
In brief, on day 1, Nunc black MaxiSorp® 96-well plates (Thermo Fisher Scientific, USA) were coated overnight with 100 μl per well of mouse anti-human TNFα capture antibody (provided as part of the DuoSet ELISA kit) at 4 μg/ml TBS at 4° C. On day 2, the capture antibody solution was removed and MaxiSorp® plates were blocked with 300 μl per well of TBS, 1% BSA at room temperature for 3 hours. […] Using an infinite M1000 PRO (Tecan Group, Switzerland) microplate reader, the fluorescence of each well was collected at an excitation wavelength of 435 nm and an emission wavelength of 555 nm.

[2] = biological target: T1, human iRhom2 (inactive rhomboid protein …); experiment: cell-based or functional assay
[3] = biological target: T2, peptide 11 (human iRhom2 C-terminus, …); experiment: peptide binding ELISA, biotinylated peptide coated
[4] = biological target: T3, peptide 1b (human iRhom1 juxtamembrane …); experiment: peptide binding ELISA, biotinylated peptide coated
[5] = biological target: T4, peptide 2b (human iRhom1 juxtamembrane …); experiment: peptide binding ELISA, biotinylated peptide coated
[6] = biological target: T5, peptide 3b (human iRhom1 juxtamembrane …); experiment: peptide binding ELISA, biotinylated peptide coated
[7] = biological target: T6, peptide 4b (human iRhom1 juxtamembrane …); experiment: peptide binding ELISA, biotinylated peptide coated
[8] = biological target: T7, peptide 5 (human iRhom2 loop 1, …); experiment: peptide binding ELISA, biotinylated peptide coated
[9] = biological target: T8, peptide 6 (human iRhom2 loop 1, …); experiment: peptide binding ELISA, biotinylated peptide coated
[10] = biological target: T9, peptide 7 (human iRhom2 loop 1, …); experiment: peptide binding ELISA, biotinylated peptide coated
[11] = biological target: T10, peptide 8 (human iRhom2 C-terminus, …); experiment: peptide binding ELISA, biotinylated peptide coated
[12] = biological target: T11, peptide 9 (human iRhom2 C-terminus, …); experiment: peptide binding ELISA, biotinylated peptide coated
[13] = biological target: T12, peptide 10 (human iRhom2 C-terminus, …); experiment: peptide binding ELISA, biotinylated peptide coated

Row | Molecule | inhibition at 10 µM [1] [%] | IC50 on LPS-induced release of endogenous TNFα from THP-1 cells [2] [nM] | binding result [3] | binding result [4] | binding result [5] | binding result [6] | binding result [7] | binding result [8] | binding result [9] | binding result [10] | binding result [11] | binding result [12] | binding result [13]
1 | CNC(=O)[C@H](Cc1ccccc1)NC(=O)[C@H](CC(C)C)[C@H](CSc1cccs1)C(=O)NO [Batimastat, reference compound] | 92.5 | – | – | – | – | – | – | – | – | – | – | – | –
2 | B1 | – | 6.48 | no binding (tested: 3 µg/ml) | no binding (tested: 3 µg/ml) | no binding (tested: 3 µg/ml) | no binding (tested: 3 µg/ml) | no binding (tested: 3 µg/ml) | no binding (tested: 3 µg/ml) | no binding (tested: 3 µg/ml) | no binding (tested: 3 µg/ml) | no binding (tested: 3 µg/ml) | no binding (tested: 3 µg/ml) | no binding (tested: 3 µg/ml)
